Assay results as given in PMC9884275, “Metamorphism in TDP-43 prion-like domain determines chaperone recognition” (Nature Communications, 2023).

Assays:
Conditions in all cases: both partners purified
DNAJC7 = target: T1, DNAJC7 (human, UniProt Q99615 1-494); assay: NMR titration; 15N-HSQC at 15 °C, 800 MHz; 25–35 μM 15N/13C-labelled PLD with HSP72 and a JDP at 1:2:2 molar ratio (PLD:HSP70:co-chaperone), NMR buffer with 10 mM DTT
T1 construct: DNAJC7, human, cDNA cloned into pET28a (GenScript); also called HSP40 (class C JDP)
T1 sequence (looked up): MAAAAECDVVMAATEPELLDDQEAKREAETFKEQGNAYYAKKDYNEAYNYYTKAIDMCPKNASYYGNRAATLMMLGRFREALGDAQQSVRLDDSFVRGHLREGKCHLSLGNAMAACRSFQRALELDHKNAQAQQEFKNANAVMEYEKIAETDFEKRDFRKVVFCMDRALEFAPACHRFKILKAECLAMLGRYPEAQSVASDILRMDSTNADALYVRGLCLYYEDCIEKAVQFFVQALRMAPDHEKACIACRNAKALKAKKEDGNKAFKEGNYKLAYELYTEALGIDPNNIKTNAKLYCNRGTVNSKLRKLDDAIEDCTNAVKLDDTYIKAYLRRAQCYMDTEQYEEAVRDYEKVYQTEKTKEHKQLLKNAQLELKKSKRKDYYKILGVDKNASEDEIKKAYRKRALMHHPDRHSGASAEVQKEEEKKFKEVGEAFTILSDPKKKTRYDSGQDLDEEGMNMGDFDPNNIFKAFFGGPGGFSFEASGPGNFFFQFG

DNAJB1 = target: T2, DNAJB1 (human, UniProt P25685 1-340); assay: as above
T2 construct: DNAJB1, human, cDNA cloned into pET28a (GenScript); also called HSP40 (class B JDP)

DNAJB4 = target: T3, DNAJB4 (human, UniProt Q9UDY4 1-337); assay: as above
T3 construct: DNAJB4, human, cDNA cloned into pET28a (GenScript); also called HSP40 (class B JDP)

DNAJA2 = target: T4, DNAJA2 (human, UniProt O60884 1-412); assay: NMR titration; 15N-HSQC at 15 °C, 800 MHz; 25–35 μM 15N/13C-labelled PLD in NMR buffer with 10 mM DTT (5 mM ZnCl2 for DNAJA2); unlabelled JDP co-chaperones added; signal intensity decay shown at 1:2 molar ratio
T4 construct: DNAJA2, human, cDNA cloned into pET28a (GenScript); 5 mM ZnCl2 and 10 mM DTT were added to its NMR samples; also called HSP40 (class A JDP)

Measured: binding result

T4 sequence (O60884 whole entry): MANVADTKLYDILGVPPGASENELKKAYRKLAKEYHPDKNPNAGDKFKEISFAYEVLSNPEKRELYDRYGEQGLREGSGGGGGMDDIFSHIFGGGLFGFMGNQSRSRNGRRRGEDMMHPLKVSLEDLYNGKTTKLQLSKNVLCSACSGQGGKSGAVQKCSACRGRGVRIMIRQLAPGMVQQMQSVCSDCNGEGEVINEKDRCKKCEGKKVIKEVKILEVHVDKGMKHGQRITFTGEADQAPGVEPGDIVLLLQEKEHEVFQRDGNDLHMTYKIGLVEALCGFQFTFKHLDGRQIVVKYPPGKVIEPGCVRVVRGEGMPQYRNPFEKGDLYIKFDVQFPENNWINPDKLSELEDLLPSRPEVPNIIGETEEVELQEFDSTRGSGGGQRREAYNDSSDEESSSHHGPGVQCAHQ
T2 sequence (P25685 whole entry): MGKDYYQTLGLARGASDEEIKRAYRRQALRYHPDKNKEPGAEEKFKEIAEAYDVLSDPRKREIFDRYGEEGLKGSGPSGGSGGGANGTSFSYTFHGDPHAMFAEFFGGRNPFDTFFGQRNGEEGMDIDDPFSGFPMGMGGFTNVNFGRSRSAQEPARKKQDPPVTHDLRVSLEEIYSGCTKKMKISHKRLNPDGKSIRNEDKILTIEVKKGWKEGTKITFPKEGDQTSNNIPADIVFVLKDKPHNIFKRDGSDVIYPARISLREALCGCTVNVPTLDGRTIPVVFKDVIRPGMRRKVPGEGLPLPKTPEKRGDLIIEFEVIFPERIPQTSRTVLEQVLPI
T3 sequence (Q9UDY4 whole entry): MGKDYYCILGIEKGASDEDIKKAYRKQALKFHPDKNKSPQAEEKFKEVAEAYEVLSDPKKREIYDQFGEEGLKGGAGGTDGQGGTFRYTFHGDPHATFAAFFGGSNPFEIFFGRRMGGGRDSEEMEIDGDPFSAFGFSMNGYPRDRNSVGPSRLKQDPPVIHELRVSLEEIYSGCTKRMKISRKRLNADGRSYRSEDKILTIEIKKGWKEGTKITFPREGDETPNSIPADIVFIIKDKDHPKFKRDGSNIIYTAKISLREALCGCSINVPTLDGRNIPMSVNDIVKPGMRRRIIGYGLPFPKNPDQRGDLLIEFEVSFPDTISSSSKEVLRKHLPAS

B1: TDP-43 prion-like domain (fragment 274-414 of human TDP-43) (domain or fragment, UniProt Q13148 274-414, looked up)
chain: GRFGGNPGGFGNQGGFGNSRGGGAGLGNNQGSNMGGGMNFGAFSINPAMMAAAQAALQSSWGMMGMLASQQNQSGPSGNNQNQGNMQREPNQAFGSGNNSYSGSNSGAAIGWGSASNAGSGSGFNGGFGSSMDSKSSGWGM
notes: TDP-43, human, UniProt Q13148, C-terminal prion-like domain, residues 274-414; 15N/13C-labelled for the NMR experiments; also called PLD; TDP-43 PLD; not shown: Thioredoxin (TXA), N-terminal, cleaved; His6, N-terminal, cleaved
binds: DNAJC7 | DNAJB1 | DNAJB4 | DNAJA2
